B1: GST-Dpb11-wild-type [budding yeast] / PKA-Sld2T84D [modified: 32P-phosphate on the artificial PKA site; 32P-phosphate on the artificial PKA site] [budding yeast] (parent)
chain 1: MKPFQGITFCPTAINNEILAKKISKKIIKLGGIFSKDLTRQVNVLVVGSTTNTNKFKFAVKHRFDIIFIDIQAIDDIYQLWLSGENILPDSNTATMTGSTYEMLKILYRRFSFKYLHNFNIFIGRITDTNITSIDSLVRSIKKLGCSSYNYQNFVIKDTSSHNDDDDQGQNGQISIFVTDTLLGARVNAAIEQNIPIVHFKWILDCQKRSALLPYDPYYLLPNIKDLPYDSIGSNSCDCWDKINTTFPTNIDAQSSLQRQQSSSTLTPSLPKTSSLLNKFKPKGEKIWDKAMSLQQHSKTNFSVLGQSPLSINNKQEDLSDNSTLIFKNCAFIIHHIFPGNHRSILTKIVVQNGGKIETSYLSGIYDHSYYIIPSNKALDSFNDLPEIIDDNDGIVTEFFIERCLYYQKLLHPIDLWSKPFLSTIEFQVSSSSKLLHHEFSSSPFLNVTITGFSGVELLHLTKVLNLLKPMGINYVEYLNKSTDILLINLAALPSIPKTHPLWSNEFSDLFTQFCINNNNDDPGDNNRKDFQNNSILRNSMKRKIEYIKKFHSIPVVTPAFIFKLLSAASGENNEIFLNNIKWCIICPRGHKDDFKCKIKKPYYTSISSEKKYQNNDPKIDKTILLKRNNSSLSEHSMKDTKNELLQKIRETDSGRKKRSVSSSIMDVSSERQMPDTKRIKLESLPKNFVPKQIKRTTSWGTIMSENVPTEQPTAISNPEEIPRTEEVSHTQVTYGSIQDKKRTASLEKPMRRQTRNQTKELDS
chain 2: MYSFELDKLKIELKTWEHDFIDKNKREPTRDDIKSLRTVRQMYKQYSTLKKKQSLQRQKVDTQESVELPAHKKDHDEVVEIGPDPQVYGKAISIFDMNLSPIKPIYMTFTNNIDVNNDNSKTISNESSPRKTILLKSSPADRTLVAEPISSVKRQLNFQMLNASSTRTPTSSPCKNRNGKLVEIKKCSPTINPPLESGKPSGYYGPNSPLKLDEENIHLNISLNSSTKRRLQIAYPSLQKTPSKDQADISTSFSPSPLIRRPLTKSLIELAREHTEIVKEFGVLQEEDIEEEEEGEEGENGYDEKNHEDDFGLEDELIRPKVVKDIFQEDDDNDDSQAREDTFIRKRPKRRKVIRRLRDNDPETETAGFERDVHKELVKLKRRKVAEFLGSTSQISDTEFEHDPEASSGVVSSEQKPTAKRKGRKKYNLVSNNFRRLKLPKKNRFSNGRWGRR
B2: GST-Dpb11-wild-type [budding yeast] / Cdc45 (purified, radiolabelled) [budding yeast] (parent)
chain 1: B1 chain 1
chain 2: MYYGISQFSEAYNKILRNSSSHSSCQLVIFVSCLNIDALCATKMLSLLFKKQLVQSQIVPIFGYSELRRHYSQLDDNINSLLLVGFGGVIDLEAFLEIDPQEYVIDTDEKSGEQSFRRDIYVLDAHRPWNLDNIFGSQIIQCFDDGTVDDTLGEQKEAYYKLLELDEESGDDELSGDENDNNGGDDEATDADEVTDEDEEDEDETISNKRGNSSIGPNDLSKRKQRKKQIHEYEGVLEEYYSQGTTVVNSISAQIYSLLSAIGETNLSNLWLNILGTTSLDIAYAQVYNRLYPLLQDEVKRLTPSSRNSVKTPDTLTLNIQPDYYLFLLRHSSLYDSFYYSNYVNAKLSLWNENGKKRLHKMFARMGIPLSTAQETWLYMDHSIKRELGIIFDKNLDRYGLQDIIRDGFVRTLGYRGSISASEFVEALTALLEVGNSTDKDSVKINNDNNDDTDGEEEEDNSAQKLTNLRKRWVSNFWLSWDALDDRKVELLNRGIQLAQDLQRAIFNTGVAILEKKLIKHLRIYRLCVLQDGPDLDLYRNPLTLLRLGNWLIECCAESEDKQLLPMVLASIDENTDTYLVAGLTPRYPRGLDTIHTKKPILNNFSMAFQQITAETDAKVRIDNFESSIIEIRREDLSPFLEKLTLSGLL

Key:
[1] = variants of: B1; assay: GST pull-down, phosphorimaging; conditions: with PKA-Sld2T84D [modified: 32P-phosphate on the artificial PKA site
[2] = variants of: B2; assay: GST pull-down, phosphorimaging; conditions: with Cdc45 (purified, radiolabelled) [budding yeast], 10 pmoles GST-Dpb11, read off a plot

Row | response ([1]; 10 pmoles GST-Dpb11, 1 pmole Sld2T84D input, parent: 0.28, read off a plot) [pmol] | response ([1]; 10 pmoles GST-Dpb11, 3 pmoles Sld2T84D input, parent: 0.64, read off a plot) [pmol] | response ([1]; 10 pmoles GST-Dpb11, 10 pmoles Sld2T84D input, parent: 1.6, read off a plot) [pmol] | response ([2]; 1 pmole Cdc45 input, parent: 0.11) [pmol] | response ([2]; 3 pmoles Cdc45 input, parent: 0.44) [pmol] | response ([2]; 10 pmoles Cdc45 input, parent: 0.89) [pmol] | Variant
1 | 0.3 | 0.72 | 1.7 |  |  |  | chain 1 K463E K469E R538E K549E
2 |  |  |  | 0.1 | 0.42 | 0.85 | chain 1 K463E K469E R538E K549E
